These are literature values, as cited in patent US6663886B2, “Inhibition of cell-cell binding by lipid assemblies” (Regents of the University of California, priority 1997, dated 2003).

The data set concerns the target T1, P-selectin (Homo sapiens, UniProt P16109).
T1 sequence (P16109 42-830): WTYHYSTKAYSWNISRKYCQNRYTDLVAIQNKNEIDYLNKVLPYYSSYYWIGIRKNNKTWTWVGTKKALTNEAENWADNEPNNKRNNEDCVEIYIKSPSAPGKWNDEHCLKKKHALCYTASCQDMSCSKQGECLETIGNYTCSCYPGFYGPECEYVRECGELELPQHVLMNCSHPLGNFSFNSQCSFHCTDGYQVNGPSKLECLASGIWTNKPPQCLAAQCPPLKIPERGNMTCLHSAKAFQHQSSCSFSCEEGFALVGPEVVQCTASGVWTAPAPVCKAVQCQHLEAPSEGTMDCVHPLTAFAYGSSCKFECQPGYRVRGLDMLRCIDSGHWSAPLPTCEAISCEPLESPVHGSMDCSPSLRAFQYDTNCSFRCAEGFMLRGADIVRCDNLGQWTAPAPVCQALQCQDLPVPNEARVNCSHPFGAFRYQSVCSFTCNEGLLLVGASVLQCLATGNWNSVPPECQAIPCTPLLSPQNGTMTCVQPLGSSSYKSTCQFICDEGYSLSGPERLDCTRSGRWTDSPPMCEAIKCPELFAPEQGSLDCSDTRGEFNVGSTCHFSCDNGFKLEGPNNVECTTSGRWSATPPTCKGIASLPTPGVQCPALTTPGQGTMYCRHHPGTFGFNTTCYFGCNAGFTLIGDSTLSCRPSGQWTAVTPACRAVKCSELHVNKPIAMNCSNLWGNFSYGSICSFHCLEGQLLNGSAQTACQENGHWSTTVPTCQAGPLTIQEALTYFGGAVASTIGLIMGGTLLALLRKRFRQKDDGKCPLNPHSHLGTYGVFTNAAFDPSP
The settings on record: literature (Nelson et al. 1993; Moore et al. 1991).

B1: natural ligand: natural ligand of P-selectin, P-selectin glycoprotein ligand 1 (protein, UniProt Q14242 42-412, looked up)
P-selectin glycoprotein …: QATEYEYLDYDFLPETEPPEMLRNSTDTTPLTGPGTPESTTVEPAARRSTGLDAGGAVTELTTELANMGNLSTDSAAMEIQTTQPAATEAQTTQPVPTEAQTTPLAATEAQTTRLTATEAQTTPLAATEAQTTPPAATEAQTTQPTGLEAQTTAPAAMEAQTTAPAAMEAQTTPPAAMEAQTTQTTAMEAQTTAPEATEAQTTQPTATEAQTTPLAAMEALSTEPSATEALSMEPTTKRGLFIPFSVSSVTHKGIPMAASNLSVNYPVGAPDHISVKQCLLAILILALVATIFFVCTVVLAVRLSRKGHMYPVRNYSPTEMVCISSLLPDGGEGPSATANGGLSKAKSPGLTPEPREDREGDDLTLHSFLP
On to B1, for which the “binding affinity of P-selectin” value is listed as “in the nM range”.
